From patent publication US20160369006A1

Biological target: FcγRIIIA (CD16A) on transduced Jurkat cells (human) (UniProt P08637)
Test: cell-based or functional assay
Design: EC50, NFAT-luciferase reporter in CD16A Jurkat cells with RMF-pulsed T2 cells (reverse signaling): unit not given beside the values

FcγRIIIA (CD16A) on transduced Jurkat cells (human), sequence (P08637 17-254): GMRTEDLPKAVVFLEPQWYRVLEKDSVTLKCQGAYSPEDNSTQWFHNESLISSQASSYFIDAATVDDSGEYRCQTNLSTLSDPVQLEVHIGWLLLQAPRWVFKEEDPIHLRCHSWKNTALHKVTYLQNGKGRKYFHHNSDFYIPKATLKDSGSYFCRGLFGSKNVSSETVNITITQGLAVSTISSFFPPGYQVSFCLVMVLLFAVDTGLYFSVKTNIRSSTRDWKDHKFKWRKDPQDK

ESK1 containing D265A/P329A mutations in the Fc domain (ESK1 DAPA) (antibody)
EC50, NFAT-luciferase reporter in CD16A Jurkat cells with RMF-pulsed T2 cells (reverse signaling): > 10000

ESKM having 100% reduction in fucosylation (GlymaxX technology) (antibody)
EC50, NFAT-luciferase reporter in CD16A Jurkat cells with RMF-pulsed T2 cells (reverse signaling): 0.17
fold decrease in EC50 relative to wildtype ESK1, CD16A reporter: 5 fold
